Measured values reported in US9175090B2, “Methods of using an antibody to inhibit WNT-mediated signaling in cancer” (Vanderbilt University, priority 2011, dated 2015).

Legend:
GSK3 = GSK3 (Homo sapiens, UniProt P49841); experiment: GSK3 kinase activity; format: biochemical; conditions: data not shown
Text: (§1) The inventors used a cell line with reduced CK1α levels due to inducible expression of shRNA against CK1α.

AXIN2 and c-MYC = experiment: Real-time RT-PCR of endogenous Wnt target genes; format: cell-based; conditions: normalized to β-actin mRNA
[1] = target: β-catenin degradation complex (Homo sapiens, UniProt P48729); experiment: In vitro kinase reaction with purified GSK3, CK1α, Axin and β-catenin; format: biochemical; conditions: pyrvinium 10 nM, proteins 100 nM each
β-catenin degradation complex, sequence (P48729 whole entry, one chain of several): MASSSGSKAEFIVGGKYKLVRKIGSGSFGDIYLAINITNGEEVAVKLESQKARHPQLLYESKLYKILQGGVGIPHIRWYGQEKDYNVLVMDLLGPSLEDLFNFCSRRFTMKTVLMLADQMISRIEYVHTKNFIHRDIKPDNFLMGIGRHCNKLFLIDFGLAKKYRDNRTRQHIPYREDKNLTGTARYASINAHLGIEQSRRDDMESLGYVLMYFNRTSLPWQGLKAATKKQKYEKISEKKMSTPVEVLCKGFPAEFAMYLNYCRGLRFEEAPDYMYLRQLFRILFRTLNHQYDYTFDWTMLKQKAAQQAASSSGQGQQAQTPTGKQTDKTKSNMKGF
Procedure: (§2) FIGS. 3A-C. […] Phosphorylation of β-catenin on GSK3 sites (p33,37,41) and the priming CK1α site (p45) was detected by immunoblotting. […] Cells were treated with Wnt3a-conditioned media and lysates were assayed for TOPflash to assess Wnt signaling.
as §1

[2] = tested on: male C57Bl/6 mice with myocardial infarct; format: in vivo
Text: FIGS. 5A-D. Mouse MI model. Representative mouse EKG tracings pre (FIG. 5A) and post (FIG. 5B) coronary artery ligation. […] Arrows mark lateral and posterior left ventricle (LV). LVIDD, LVIDS=LV internal diameter at systole and […], respectively. RV=right ventricle. […] Cardiac dimensions were obtained from 2-D guided M-mode images (100 frames/sec) and were read blinded using short axis and a parasternal long-axis views with the leading edge method. All echo measurements were averaged over 3 consecutive beats on unsedated mice at 7 and 30 days after infarction. Statistical significance assessed by the Wilcoxon rank sum test.
Myocardial infarcts were induced in male C57Bl/6 mice by coronary ligation (FIG. 5) as previously described (Alfaro et al., 2008).
Ventricular remodeling and cardiac functional parameters will be assessed by echo.
Mammalian cardiomyocytes irreversibly withdraw from the cell cycle soon after birth and undergo terminal differentiation. […] Therefore, cardiac injury causes permanent myocardial loss and cardiac dysfunction. […] Proliferation was assessed by immunostaining for Ki-67. […] Phosphorylation of histone 3 (pH3) on Ser 10 is an established cellular marker for chromosome condensation during mitotic prophase (van Amerongen and Engel, 2008).

[3] = tested on: Wnt signaling (TOPflash) in shRNA-CK1α cells; experiment: TOPflash in Jurkat cell line with inducible shRNA for CK1α; format: cell-based; conditions: pyrvinium 30 nM, Wnt3a-conditioned media
Procedure: as §2, §1

[4] = tested on: Wnt signaling (TOPflash, TCF/Lef1 promoter luciferase); experiment: TOPflash reporter assay in HEK 293 STF cells treated with Wnt3a-conditioned media; format: cell-based; conditions: 24 hours, read-out: IC50, inhibition of TOPflash activation (Wnt signaling)
Text: Graph represents mean±s.e.m of TOPflash signal normalized to cell number (performed in quadruplicate). […] Data shown represent mean of four independent amplification reactions, graphed as relative expression to unstimulated cells. Expression levels were normalized to β-actin mRNA. Error bars, RQ values with 95% confidence.

CK1α = CK1α (Homo sapiens, UniProt P48729); experiment: Binding and activation of purified recombinant kinases; format: biochemical
CK1α, sequence (P48729 whole entry): as the sequence (P48729 whole entry, one chain of several) above

[5] = tested on: Wnt3a-mediated Wnt signaling (LRP5/6); experiment: Wnt3a-mediated activation of the Wnt pathway, TOPflash reporter cell line (antibody); format: cell-based
Procedure: FIGS. 11A-B. Wnt activated signaling. (FIG. 11A) Wnt3a activated signaling in 293 HEK cells. (FIG. 11B) Wnt signaling in SW480 colorectal cancer cell line with mutant APC.
The inventors examined effects of antibodies on Wnt signaling activated by recombinant Wnt3a, which was added to the media, and effects of antibodies on Wnt signaling in a colorectal cancer line (SW480) that has constitutively active Wnt signaling due to a mutation in the tumor suppressor, APC. […] This was unexpected because the APC mutation is downstream of the LRP6 receptor, to which the antibody is directed.

[6] = tested on: β-catenin nuclear accumulation, RKO cells; experiment: Wnt3a-induced nuclear accumulation of β-catenin in RKO cells; conditions: 300 pg/ml, 24 hours
Procedure: RKO cells were treated with Wnt3a in the presence or absence of 300 pg/ml mabLRP6 for 24 hours. Cells were fixed and immunostained for β-catenin (green). DAPI (blue) stains DNA.

mice = experiment: In vivo toxicity of mabLRP5/6; conditions: mouse
[7] = tested on: Wnt3a-mediated luciferase activity; experiment: Plasma of IV-treated mice tested on TOPflash reporter HEK cells; format: in vivo; conditions: for Greater inhibition of Wnt3a-mediated luciferase activity by plasma compared to IgM controls: 9.4 μg, 100 μl plasma
Procedure: (§3) The canonical Wnt signaling pathway was assessed using luciferase activity in HEK cells stably transfected with TOPflash reporter. Cells were treated with recombinant Wnt 3a to activate Wnt signaling. […] Cycle thresholds for 18S mRNA transcripts were used to normalize between samples. n=4 mice analyzed at each time point for each cohort. Ki-67-positive cells in the heart (FIG. 8C) and pH3-positive mononucleated, differentiated cardiomyocytes in mabLRP5/6-treated remote myocardium (FIG. 8D).
(§4) To evaluate whether mabLRP5/6 inhibits Wnt-mediated transcription in vivo, the inventors injected 3 groups of mice IV with increasing amounts of mabLRP5/6 (2.3 μg, 4.7 μg or 9.4 μg, n=3 in each group) or control IgM. Mice were sacrificed after 48 hours and serum and tissue samples were obtained. […] Heart tissues from treated animals were homogenized and total RNA isolated for real time RT-PCR analysis (Young et al., 2005). […] The effect on Axin 2 transcript persisted at 72 hours after a single administration. To obtain evidence that mabLRP5/6 has cellular effects on post-MI myocardium, the inventors analyzed by immuno-histology paraffin-embedded sections from male mice treated with either IgM or mabLRP5/6 12 hours prior to induction of acute MI and then sacrificed 14 days later (n=1 for each condition). They identified >3-fold higher Ki-67^+ and pH3^+ cells in the remote LV from the mabLRP5/6-treated mouse compared to the control IgM-treated mouse (FIGS. 8C-D).

[8] = tested on: male C57Bl/6 mice with myocardial infarct; experiment: Acute myocardial infarct model, IV antibody, echocardiography; format: in vivo
Procedure: FIG. 9. Effect of low and high dose of mabLRP5/6 adminstered post infarct as compared to […] control. LVIDD and LVIDS to represent cardiac remodeling, and EF, ejection fraction, as a measurement of cardiac function, were determined by echocardiography and are plotted as percentage difference values (mean±SD) between 7 and 30 days after infarct.
The inventors initiated studies to determine the effectiveness of mMABLRP5/6 on repair and regeneration of injured myocardium using an mouse acute myocardial infarct model. Myocardial infarcts were induced in 8-week old male C57Bl/6 mice ([…]) by coronary ligation (FIG. 9) as previously described (Alfaro et al., 2008). At the time of infarction, the inventors administered 10 μg or 20 μg of mabLRP5/6 in 100 μl PBS or the same amount of IgM as control, intravenously by tail vein injection. The mice received a second dose of mabLRP5/6 or control antibody 72 hours after infarct to maintain at least 50% Wnt inhibition activity in the plasma through 7 days post infarct (data not shown). Ventricular remodeling and cardiac function were analyzed by echocardiography pre-infarct and at 7 and 30 days post MI. Ventricular function was reflected by ejection fraction (EF). LV internal dimension diastolic (LVIDD) and LV internal dimension systolic (LVIDS) reflected remodeling of the infarcted ventricle (FIG. 1). […] Additional numbers of animals as well as histologic myocardial analysis and high-resolution visual sonics studies are pending to determine infarct size and elucidate effects of mabLRP5/6 on endogenous cellular myocardial repair.

[9] = tested on: Axin 2 and Cyclin D transcripts; experiment: Real time RT-PCR of Wnt target genes in heart homogenates of treated mice; format: in vivo
Procedure: as §3, §4

[10] = tested on: Ki-67+ and pH3+ cells in remote LV; experiment: Immunohistology of post-MI myocardium after antibody pretreatment; format: in vivo, mice; conditions: treated 12 hours prior to MI, 14 days, n=1
Procedure: as §3
as §4, with “They identified >3-fold higher Ki-67^+ and pH3^+ cells in the remote LV from the mabLRP5/6-treated mouse compared to the control IgM-treated mouse (FIGS. 8C-D).” left out

GSK3, sequence (P49841 whole entry): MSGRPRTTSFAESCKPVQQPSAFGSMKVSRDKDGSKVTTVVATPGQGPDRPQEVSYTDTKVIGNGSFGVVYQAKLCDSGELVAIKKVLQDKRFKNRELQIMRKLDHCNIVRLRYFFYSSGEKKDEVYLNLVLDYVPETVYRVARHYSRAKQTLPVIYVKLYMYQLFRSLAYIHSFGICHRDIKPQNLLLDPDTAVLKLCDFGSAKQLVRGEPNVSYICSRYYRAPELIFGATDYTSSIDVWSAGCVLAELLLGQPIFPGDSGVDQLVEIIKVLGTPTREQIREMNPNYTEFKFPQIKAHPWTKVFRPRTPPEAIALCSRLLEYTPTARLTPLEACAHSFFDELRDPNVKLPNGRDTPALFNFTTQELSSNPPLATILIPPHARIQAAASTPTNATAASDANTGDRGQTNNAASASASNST

**Q.** `Cc1cc(/C=C/c2ccc3cc(N(C)C)ccc3[n+]2C)c(C)n1-c1ccccc1` [pyrvinium] was tested. Which GSK3 activity (GSK3) did it give?
**A.** The GSK3 activity was “no observable effect”.

**Q.** And the “Levels of endogenous Wnt target genes AXIN2 and c-MYC” value (AXIN2 and c-MYC)?
**A.** The value was “decreases”.

**Q.** And the “β-catenin phosphorylation (GSK3 and CK1α sites)” value [1]?
**A.** Its value is “dramatic increase”.

**Q.** What about the “Infarct size, comparison between the two cohorts” value ([2]; data not shown) of the same molecule?
**A.** Its value is “did not reflect any statistically significant differences”.

**Q.** What about the “Numbers of Ki-67-positive cells in peri-infarct and remote myocardium, versus Cmpd 211” value ([2]; mouse, in vivo) of the same molecule?
**A.** Its value is “significantly higher”.

**Q.** What about the “Numbers of Ki-67-positive cells in the scar, versus Cmpd 211” value ([2]; mouse, in vivo) of the same molecule?
**A.** Its value is “similar”.

**Q.** What about the “Average difference in fractional shortening between days 7 and 30” value ([2]; single 200 nM injection, p<0.05) of the same molecule?
**A.** The value was 22.3+5.2.

**Q.** And the “Myocyte proliferation in sham-operated animals” value ([2]; single intramyocardial injection into LV apex, data not shown)?
**A.** Its value is “did not induce myocyte proliferation”.

**Q.** What about the “Inhibition of TOPflash activity in shRNA-CK1α cells” value [3] of the same molecule?
**A.** Its value is “failed to inhibit”.

**Q.** What about the IC50 [4] of the same molecule?
**A.** The IC50 was roughly 10 nM.

**Q.** What about the “Phosphorylation of Tau by CK1α” value (CK1α; data not shown) of the same molecule?
**A.** Its value is “enhanced”.

**Q.** And the “Binding and activation of representative kinases” value (CK1α; pyrvinium 10 nM)?
**A.** Its value is “binding and activation of CK1α alone”.

B1: mabLRP5/6: stable hybridoma line monoclonal antibody against LRP5/6 raised in BALB/c mice with human LRP6 fragments; inhibits Wnt signaling (antibody, V domains shown)
VH: QVQLKESGPGLVASSQSLSITCTVSGFSLSRYSVHWVRQPPGKGLEWLGMIWGGGSTDYNSALKSRLGISKDNSKSQVFLKMNSLQTDDTAMYYCAGTGSWFAYWGQGTLVTVSA
VL: DIQMTQSPASLSASVGETVTITCRASGNIHNYLAWYQQKQGKSPQLLVYNAKTLADGVPSRFSGSGSGTQYSLKINSLQPEDFGSYYCQHFWSTPWTFGGGTKLEIK
**Q.** Which results are given for B1?
**A.** IC50, inhibition of Wnt signaling [5]: ~200 pg/mL; Wnt3a-induced nuclear accumulation of β-catenin [6]: blocked; Wnt3a-induced nuclear accumulation of β-catenin ([6]; listed as mabLRP6): inhibits; In vivo toxicity (mice): minimal toxicity; Greater inhibition of Wnt3a-mediated luciferase activity by plasma compared to IgM controls ([7]; 48 hours after administration): ~5 fold; Greater inhibition of Wnt3a-mediated luciferase activity by plasma compared to IgM controls ([7]; 72 hours after administration): ~2 fold; Wnt signaling in TOPflash reporter cell line treated with plasma ([7]; IV 4.7 and 9.4 μg, 50 μl plasma, 48 and 72 hours): inhibited Wnt signaling; Percentage difference in LVIDS between day 7 and day 30 ([8]; 20 μg compared with 10 μg dose or control IgM): reduced in a dose-dependent manner; Decrease in ejection fraction (EF) between day 7 and day 30 ([8]; high dose): decreased less; Percentage difference in LVIDD between day 7 and day 30 ([8]; high dose (20 μg IV at infarction and 72 hours)): 5.36±0.83 percentage; Decrease in ejection fraction (EF) between day 7 and day 30 ([8]; low dose): ~6%; Percentage difference in LVIDD between day 7 and day 30 ([8]; low dose (10 μg IV at infarction and 72 hours)): 6.23 ± 2.3 percentage; Wnt inhibition activity in the plasma ([8]; second dose at 72 hours, through 7 days post infarct, data not shown): at least 50%; Reduction in Axin 2 transcripts in heart compared to controls ([9]; 48 h): ~2 fold; Reduction in Cyclin D transcripts in heart compared to controls ([9]; 48 h): ~2 fold; Effect on Axin 2 transcript in heart ([9]; 72 hours after a single administration): persisted; Ki-67+ cells in remote LV, higher than control IgM [10]: > 3 fold; pH3+ cells in remote LV, higher than control IgM [10]: > 3 fold
